Here are results for ten molecules from patent US20120040894A1.

Numbered stars: 1 amine (or outer) side, 2 acyl side, 3 side chain; on linkers, the order of the positions; unused ones are H or OH. Square brackets hold non-standard residues; d marks the D form. Ends that are not written are not given here. Dap(AcBr) = N-(bromoacetyl)-L-2,3-diaminopropionic acid, O=C(CBr)NC[C@H](N[*:1])C(=O)[*:2]; Oic = O=C(O)[C@@H]1C[C@@H]2CCCC[C@@H]2N1; Dip = N[C@H](C(=O)O)C(c1ccccc1)c1ccccc1; β3hF = N[C@H](CC(=O)O)Cc1ccccc1; Chg = N[C@H](C(=O)O)C1CCCCC1; Phg = N[C@H](C(=O)O)c1ccccc1; Tle = CC(C)(C)[C@H](N)C(=O)O; β3hP = O=C(O)C[C@@H]1CCCN1; Dpa = not defined here

For this test, the target named is T1, ferroportin tagged at the C-terminus with green fluorescent protein (ECR293/Fpn-GFP cells).
T1 sequence (Q9NP59 whole entry, species assumed, looked up): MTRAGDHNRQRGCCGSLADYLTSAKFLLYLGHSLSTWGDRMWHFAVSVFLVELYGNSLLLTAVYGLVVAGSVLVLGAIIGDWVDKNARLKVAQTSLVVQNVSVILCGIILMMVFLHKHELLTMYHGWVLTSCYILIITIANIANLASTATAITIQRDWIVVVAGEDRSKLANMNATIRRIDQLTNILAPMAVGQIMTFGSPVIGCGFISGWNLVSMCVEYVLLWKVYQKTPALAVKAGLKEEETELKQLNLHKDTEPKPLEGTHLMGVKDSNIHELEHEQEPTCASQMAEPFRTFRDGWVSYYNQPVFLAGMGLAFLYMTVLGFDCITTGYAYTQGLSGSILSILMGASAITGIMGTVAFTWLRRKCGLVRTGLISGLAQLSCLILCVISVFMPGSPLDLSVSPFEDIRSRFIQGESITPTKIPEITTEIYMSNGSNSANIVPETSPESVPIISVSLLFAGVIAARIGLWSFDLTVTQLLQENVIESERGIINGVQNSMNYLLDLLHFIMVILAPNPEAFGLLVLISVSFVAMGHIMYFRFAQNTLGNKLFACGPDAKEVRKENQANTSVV
In words: cell-based or functional assay.

B1: Pr10 (peptide)
peptide: D[Tle]H[Phg][Oic][Chg]C[Chg]F-NH2
modifications: N-terminus assumed
SMILES: CC(C)(C)[C@H](NC(=O)[C@@H](N)CC(=O)O)C(=O)N[C@@H](Cc1c[nH]cn1)C(=O)N[C@H](C(=O)N1[C@H](C(=O)N[C@H](C(=O)N[C@@H](CS)C(=O)N[C@H](C(=O)N[C@@H](Cc2ccccc2)C(N)=O)C2CCCCC2)C2CCCCC2)C[C@@H]2CCCC[C@@H]21)c1ccccc1
In the case of B1, the EC50 (nM); loss of fluorescence of Fpn-GFP cells, flow cytometry is greater than 3000 nM.

B2: Pr20 (peptide)
peptide: DTHFPICI[β3hF]PPR-NH2
Take B2: the EC50 (nM); loss of fluorescence of Fpn-GFP cells, flow cytometry is 200 nM.

B3: Dap(AcBr) (peptide)
peptide: DTHFPI[Dap(AcBr)]IF-NH2
modifications: N-terminus assumed
SMILES: CC[C@H](C)[C@H](NC(=O)[C@H](CNC(=O)CBr)NC(=O)[C@@H](NC(=O)[C@@H]1CCCN1C(=O)[C@H](Cc1ccccc1)NC(=O)[C@H](Cc1c[nH]cn1)NC(=O)[C@@H](NC(=O)[C@@H](N)CC(=O)O)[C@@H](C)O)[C@@H](C)CC)C(=O)N[C@@H](Cc1ccccc1)C(N)=O
B3: the EC50 (nM); loss of fluorescence of Fpn-GFP cells, flow cytometry was greater than 10000 nM.

B4: Pr21 (peptide)
peptide: DTHFPICI[β3hF]P[β3hP]K-NH2
B4 registered an EC50 (nM); loss of fluorescence of Fpn-GFP cells, flow cytometry of 500 nM.

B5: Pr11 (peptide)
peptide: D[Tle]HP[Oic][Chg]C[Chg]F-NH2
modifications: also: retroinverted
Regarding B5, the EC50 (nM); loss of fluorescence of Fpn-GFP cells, flow cytometry was greater than 3000 nM.

B6: Pr41 (peptide)
peptide: D[Dpa]PICI[Dpa]-NH2
modifications: reading uncertain
B6 gave an EC50 (nM); loss of fluorescence of Fpn-GFP cells, flow cytometry of 300 nM.

B7: Pr46 (peptide)
peptide: DTH[Dip]PCCC[Dip]-NH2
modifications: also: any disulfide between the Cys residues not recoverable
B7 gave an EC50 (nM); loss of fluorescence of Fpn-GFP cells, flow cytometry of 80 nM.

B8: Pr22 (peptide)
peptide: DTHFPICI[β3hF]P[β3hP]R-NH2
For the molecule B8, the EC50 (nM); loss of fluorescence of Fpn-GFP cells, flow cytometry was determined as 600 nM.

B9: Pr40 (peptide)
peptide: D[Dpa]PICIF-NH2
modifications: reading uncertain
B9: the EC50 (nM); loss of fluorescence of Fpn-GFP cells, flow cytometry was determined as 70 nM.

B10: Pr19 (peptide)
peptide: DTHFPICI[β3hF]PPK-NH2
On to B10, for which the EC50 (nM); loss of fluorescence of Fpn-GFP cells, flow cytometry worked out at 700 nM.
